Results reported in patent publication US20110046070A1, “GENE EXPRESSION INHIBITOR SELECTIVE FOR MATRIX METALLOPROTEINASE-9 GENE” (priority 2008, published 2011).

Experiment: Tissue distribution of fluorescently labeled polyamide
Assay type: in vivo
Settings: 7.5 mg/kg tail vein, mice
Procedure: On day 1 (24 hours), day 6 and day 21 after the intravenous injection, the mice were dissected, and each tissue of the livers, the spleens and the kidneys was collected and prepared into frozen sections, which were then fixed in 4% paraformaldehyde for 30 minutes.

With `CN(C)CCCNC(=O)CCNC(=O)c1cc(NC(=O)c2cc(NC(=O)CCNC(=O)c3nc(NC(=O)c4nc(NC(=O)CCCNC(=O)c5cc(NC(=O)c6cc(NC(=O)CCNC(=O)c7cc(NC(=O)c8cc(NC(=O)CCNC(=S)Nc9ccc(-c%10c%11ccc(=O)cc-%11oc%11cc(O)ccc%10%11)c(C(=O)O)c9)cn8C)cn7C)cn6C)cn5C)cn4C)cn3C)cn2C)cn1C` [HMMP9NFκβ-FITC] the “incorporation in the nuclei of liver and kidney cells” value (after 1 day) was “A large number”, the “incorporation in the nuclei of spleen cells” value (after 1 day) was “also incorporated in the nuclei of spleen cells” and the “FITC fluorescence in tissue” value (after 6 days) was “strong FITC fluorescence was observed”. The “FITC fluorescence intensity in the cells of each tissue” value (after 21 days) was “remarkably attenuated”.
